From EP4772534A1 (Astellas Pharma, Inc., dated 2026)
Where a chain is given by its changes, count along the chain named. Names and notes keep the numbering of the source.

B1: LYS_E294Del_h1x (antibody, human IgG1, kappa)
heavy: QVQLVQSGAEVKKPGASVKVSCKASGYAFSSSWVNWVRQAPGQGLEWMGRIYPGDGDTDYNGKFKGRVTLTADKSTSTAYMELSSLRSEDTAVYYCARRRGYEAVFDYWGQGTLVTVSSASTKGPSVFPLAPSSKSTSGGTAALGCLVKDYFPEPVTVSWNSGALTSGVHTFPAVLQSSGLYSLSSVVTVPSSSLGTQTYICNVNHKPSNTKVDKKVEPKSCDKTHTCPPCPAPELLGGPSVFLFPPKPKDTLMISRTPEVTCVVVDVSHEDPEVKFNWYVDGVEVHNAKTKPREQYNSTYRVVSVLTVLHQDWLNGKEYKCKVSNKALPAPIEKTISKAKGQPREPQVYTLPPSRDELTKNQVSLTCLVKGFYPSDIAVEWESNGQPENNYKTTPPVLDSDGSFFLYSKLTVDKSRWQQGNVFSCSVMHEALHNHYTQKSLSLSPGK
light: DIQLTQSPSSLSASVGDRVTITCRASESVDNYDISFLNWFQQKPGKAPKLLIYAASNQGSGVPSRFSGSGSGTDFTLTISSLQPEDFATYYCQQSKEVPYTFGGGTKVEIKRTVAAPSVFIFPPSDEQLKSGTASVVCLLNNFYPREAKVQWKVDNALQSGNSQESVTEQDSKDSTYSLSSTLTLSKADYEKHKVYACEVTHQGLSSPVTKSFNRGEC
notes: Expressed in ExpiCHO-S cells without ST6GAL1 co-expression; also called anti-lysozyme antibody having the E294Del amino acid mutation in the human Igγ1 constant region
B2: LYS_1c3-m1_h10 (antibody, human IgG1, kappa)
heavy: not shown
light: B1 light
notes: human Igγ1 constant region, unmodified Fc; Expressed in ExpiCHO-S cells without ST6GAL1 co-expression; also called anti-lysozyme antibody having the human Igγ1 constant region (Fc non-variant)
B3: LYS_E294Del_LALA_h1x (antibody, human IgG1, kappa, L234A L235A)
heavy: B1 heavy with L236A, L237A
light: B1 light
notes: Expressed in ExpiCHO-S cells without ST6GAL1 co-expression; also called anti-lysozyme antibody having the L234A/L235A/E294Del amino acid mutations in the human Igγ1 constant region

target: T1, human FcγRI (human, UniProt P12314 16-288, limits assumed); assay: Biacore T200 (SPR)
T1 construct: Construct used in the Biacore assay (source, tag, limits) is not described; also called human FcyRI
T1 sequence (P12314 16-288 limits assumed): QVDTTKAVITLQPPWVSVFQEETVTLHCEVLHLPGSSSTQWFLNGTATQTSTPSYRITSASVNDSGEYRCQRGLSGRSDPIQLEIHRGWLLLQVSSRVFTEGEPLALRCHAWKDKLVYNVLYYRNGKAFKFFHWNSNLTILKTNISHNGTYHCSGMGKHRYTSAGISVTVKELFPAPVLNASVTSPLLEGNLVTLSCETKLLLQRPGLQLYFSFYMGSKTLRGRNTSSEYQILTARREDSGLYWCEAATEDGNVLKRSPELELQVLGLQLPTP

| binding result | Binder |
| --- | --- |
| binds | B1 |
| binds | B2 |
| no binding | B3 |
